The record followed here is patent EP4647081A1.

This experiment concerns the target cell surface IgG (sIgG) of the sIgG+ B cell line SU-DHL-4. Nature of the experiment: cell-based or functional assay.

Regarding SpA toxin, the lowest concentration with significant toxicity on SU-DHL-4 (cell viability) stood at 0.0001 µg/mL and the percent of SU-DHL-4 cells killed above 0.001 µg/ml was 99%.

On to SpG toxin (from UniProt P00587 26-411), for which the concentration showing weak cytotoxicity on SU-DHL-4 (cell viability) was 1 µg/mL.
